Numbering of substitutions follows the chain as printed.
T1: recombinant human B7H3-Fc protein (human, UniProt Q5ZPR3 29-466, limits assumed)
T1 construct: 154 kDa non-reduced, 77 kDa reduced; also called hB7H3-Fc; not shown: Fc part
T1 sequence (looked up): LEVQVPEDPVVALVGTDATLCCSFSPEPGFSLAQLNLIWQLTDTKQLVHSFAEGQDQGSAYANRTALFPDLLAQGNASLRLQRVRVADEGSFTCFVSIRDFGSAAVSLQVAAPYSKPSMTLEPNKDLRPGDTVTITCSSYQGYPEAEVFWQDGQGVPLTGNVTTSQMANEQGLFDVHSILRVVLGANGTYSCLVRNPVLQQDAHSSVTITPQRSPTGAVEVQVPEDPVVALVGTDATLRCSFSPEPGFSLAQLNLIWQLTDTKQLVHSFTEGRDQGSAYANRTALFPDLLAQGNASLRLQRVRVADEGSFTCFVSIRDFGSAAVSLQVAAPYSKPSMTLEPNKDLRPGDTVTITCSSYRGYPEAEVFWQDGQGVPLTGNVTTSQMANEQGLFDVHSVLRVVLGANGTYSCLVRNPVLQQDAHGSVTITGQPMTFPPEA

T2: rat B7H3-His (rat, UniProt Q7TPB4 29-244, limits assumed)
T2 construct: not shown: His tag
T2 sequence (looked up): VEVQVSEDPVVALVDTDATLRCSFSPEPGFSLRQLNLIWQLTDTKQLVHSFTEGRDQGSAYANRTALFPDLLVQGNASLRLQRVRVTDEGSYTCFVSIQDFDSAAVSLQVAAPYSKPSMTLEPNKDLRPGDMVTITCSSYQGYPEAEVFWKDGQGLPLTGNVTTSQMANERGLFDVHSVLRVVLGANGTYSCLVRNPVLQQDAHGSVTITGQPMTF

T3: mouse B7H3-His (mouse, UniProt Q8VE98 29-244, limits assumed)
T3 construct: also called recombinant mouse B7H3-His protein; not shown: His tag
T3 sequence (looked up): T2 sequence (looked up) with R33A, A62S, D131N, L156V, M214L

T4: human B7H3 (human, UniProt Q5ZPR3 29-466, limits assumed)
T4 construct: also called human B7H3 protein
T4 sequence (looked up): T1 sequence (looked up)

T5: monkey B7H3-His (monkey)
T5 chain: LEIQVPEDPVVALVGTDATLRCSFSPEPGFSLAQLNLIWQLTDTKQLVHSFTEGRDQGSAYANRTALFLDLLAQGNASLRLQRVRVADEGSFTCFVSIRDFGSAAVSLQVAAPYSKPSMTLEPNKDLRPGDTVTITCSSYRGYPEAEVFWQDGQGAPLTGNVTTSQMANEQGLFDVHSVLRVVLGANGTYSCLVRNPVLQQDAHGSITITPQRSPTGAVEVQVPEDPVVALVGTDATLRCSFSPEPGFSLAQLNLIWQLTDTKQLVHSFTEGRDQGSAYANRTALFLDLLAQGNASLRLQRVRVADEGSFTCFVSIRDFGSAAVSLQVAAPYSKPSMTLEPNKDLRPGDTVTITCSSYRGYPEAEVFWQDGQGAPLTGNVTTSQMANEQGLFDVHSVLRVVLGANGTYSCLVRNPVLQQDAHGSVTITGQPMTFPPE

T6: hB7H3-His (human, UniProt Q5ZPR3 29-461, limits assumed)
T6 construct: not shown: His tag
T6 sequence (looked up): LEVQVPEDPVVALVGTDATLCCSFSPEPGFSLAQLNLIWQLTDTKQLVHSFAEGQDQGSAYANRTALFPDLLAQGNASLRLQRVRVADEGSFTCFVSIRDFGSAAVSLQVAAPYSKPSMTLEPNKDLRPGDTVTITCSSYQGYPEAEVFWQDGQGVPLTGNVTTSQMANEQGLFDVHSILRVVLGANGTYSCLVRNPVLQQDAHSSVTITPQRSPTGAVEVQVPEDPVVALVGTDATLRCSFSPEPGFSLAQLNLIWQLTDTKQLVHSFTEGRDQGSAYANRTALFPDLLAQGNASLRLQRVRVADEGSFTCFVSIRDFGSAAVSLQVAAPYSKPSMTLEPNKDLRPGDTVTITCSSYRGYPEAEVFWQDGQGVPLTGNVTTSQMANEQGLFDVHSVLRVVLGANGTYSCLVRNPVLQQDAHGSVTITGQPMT

T7: B7H3 (CD276) on MC38-CD276+ cells
T7 construct: whole, on cells; MC38-CD276KO cells served as the negative control; also called MC38-B7H3+
T7 sequence (Q5ZPR3 1-534, species assumed, looked up): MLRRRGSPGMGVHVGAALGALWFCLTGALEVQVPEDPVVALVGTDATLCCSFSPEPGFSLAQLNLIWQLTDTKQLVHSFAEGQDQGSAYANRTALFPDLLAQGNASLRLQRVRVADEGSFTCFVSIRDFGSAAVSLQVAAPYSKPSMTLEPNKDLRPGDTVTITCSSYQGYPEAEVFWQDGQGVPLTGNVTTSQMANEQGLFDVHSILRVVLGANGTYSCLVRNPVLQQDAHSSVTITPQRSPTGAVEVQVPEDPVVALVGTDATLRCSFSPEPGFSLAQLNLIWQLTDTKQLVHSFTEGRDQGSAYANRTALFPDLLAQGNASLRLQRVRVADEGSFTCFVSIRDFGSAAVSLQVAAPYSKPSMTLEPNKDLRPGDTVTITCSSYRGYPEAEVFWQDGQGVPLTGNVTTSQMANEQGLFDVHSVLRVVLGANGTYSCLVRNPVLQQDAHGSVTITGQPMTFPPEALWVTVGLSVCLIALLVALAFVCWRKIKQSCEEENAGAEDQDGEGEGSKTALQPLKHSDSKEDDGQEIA

T8: B7H3-hFc (human, UniProt Q5ZPR3 29-456)
T8 construct: also called recombinant B7H3-hFc; B7H3 ECD fused with human IgG1 Fc; not shown: human IgG1 Fc
T8 sequence: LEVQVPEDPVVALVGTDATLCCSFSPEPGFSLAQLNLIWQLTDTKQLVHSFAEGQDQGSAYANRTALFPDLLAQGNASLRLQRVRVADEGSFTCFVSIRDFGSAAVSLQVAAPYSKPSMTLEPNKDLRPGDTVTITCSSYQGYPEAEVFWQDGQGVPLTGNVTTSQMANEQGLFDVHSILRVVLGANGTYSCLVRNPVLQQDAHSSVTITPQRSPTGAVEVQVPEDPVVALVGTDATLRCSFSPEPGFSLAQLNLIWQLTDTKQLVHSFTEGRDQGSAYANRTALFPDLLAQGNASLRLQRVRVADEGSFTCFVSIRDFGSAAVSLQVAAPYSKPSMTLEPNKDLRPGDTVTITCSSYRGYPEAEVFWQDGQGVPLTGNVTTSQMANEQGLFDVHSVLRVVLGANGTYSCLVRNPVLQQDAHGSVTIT

B1: RWH1 (VHH)
VHH: AVQLVESGGGSVQAGGSLRLSCAASGMNLDNYVRGWLRQAPGSKCEFVSIIRRDGTTDYGDSVKGRFTISRDNAKNTVYLQMNSLKPDDTAVYYCAAIVVPRAAEYACDGLPYRGQGTQVTVSS
notes: Camel VHH; tag not described; also called camel antibody RWH1
B2: RWH5 (VHH)
VHH: AVQLVESGGGSVQAGGSLRLSCKASGYCMGWFRQAPGKEREGVAALNTEGGVTYYADSVKGRFSISRDNTNLYLQMNSLKPEDTAIYYCAADDRPTRCAVGSLYLPYTYRGQGTQVTVSS
notes: Camel VHH; tag not described; also called RWHS [sic]; camel antibody RWH5
B3: RWC3 (VHH)
VHH: QVQLVESGGGLVQPGGSLSVSCAASGFTFSVYWFYWVRQAPRQGLEWVSTIASNGSTYYSDSVKGRFTISRDNAKNTVYLQMNSLKPEDTAVYYCVSDPDYYSDYERAYKFWAQGTQVTVSS
notes: Camel VHH; tag not described; also called camel antibody RWC3
B4: RWD5 (VHH)
VHH: B3 VHH with Q1A, A108E
notes: Camel VHH; tag not described; also called RWDS [sic]; camel antibody RWD5
B5: RWD9 (VHH)
VHH: B3 VHH with Q1E
notes: Camel VHH; tag not described; also called camel antibody RWD9
B6: RFA1 (other)
VH: QSLEESGGGLVTPGGTLTLTCTVSGFSLSSYGMSWVRQAPGKGLEWIGSMANNGDPYYASWAKGRFTISKTSTTVDLKITSPTTEDTATYFCVRAPWGSHSMWGPGTLVTVSSGGGGSGGGGSGGGGSDPVLTQTAGGGTNVEIK
notes: Rabbit VH single-domain antibody expressed in E. coli as VH-His-FLAG fusion; also called rabbit antibody RFA1; Al [sic]; not shown: 6x His tag and FLAG tag at the C-terminus

Columns and labels:
IgG control = assay: phage ELISA
Summary of the method: (§1)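 For 3 rounds, recombinant B7H3-Fc protein served as the panning target for camel VHH phage drawn from eight individual camels' libraries. Each entry gives the ELISA signal for binding of selected phage to an immobilised antigen, either human or other-species B7H3 or a control protein, measured by phage ELISA.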

[1] = biological target: T1, recombinant human B7H3-Fc protein; assay: phage ELISA
Summary of the method: as §1

Non-relevant antigen [2] = assay: phage ELISA, cross-species
Summary of the method: as §1

rat B7H3-His [3] = biological target: T2, rat B7H3-His; assay: phage ELISA, cross-species
Summary of the method: as §1

mouse B7H3-His = biological target: T3, mouse B7H3-His; assay: phage ELISA, cross-species
Summary of the method: as §1

human B7H3 = biological target: T4, human B7H3; assay: phage ELISA, cross-species
Summary of the method: as §1

monkey B7H3-His [4] = biological target: T5, monkey B7H3-His; assay: phage ELISA, cross-species
Summary of the method: as §1

PD-L1 = assay: ELISA, purified VHH, cross-reaction
Sequence of PD-L1 (Q9NZQ7 whole entry): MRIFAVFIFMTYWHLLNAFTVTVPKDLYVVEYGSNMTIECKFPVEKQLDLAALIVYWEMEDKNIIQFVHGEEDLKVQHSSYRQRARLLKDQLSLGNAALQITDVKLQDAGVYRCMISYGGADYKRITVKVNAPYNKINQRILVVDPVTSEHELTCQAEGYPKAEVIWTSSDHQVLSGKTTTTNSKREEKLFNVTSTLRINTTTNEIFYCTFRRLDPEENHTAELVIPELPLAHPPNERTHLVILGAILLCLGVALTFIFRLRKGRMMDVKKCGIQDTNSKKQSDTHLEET

Non-relevant antigen [5] = assay: ELISA, purified VHH
Summary of the method: (§2)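 Camel VHH nanobodies were isolated by phage panning on recombinant B7H3-Fc. After purification, their binding to immobilised B7H3 fusion proteins and non-B7H3 recombinant proteins was read out by ELISA and recorded as signal.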

rat B7H3-His [6] = biological target: T2, rat B7H3-His; assay: ELISA, purified VHH
Summary of the method: as §2

hB7H3-His = biological target: T6, hB7H3-His; assay: ELISA, purified VHH
Summary of the method: as §2

[7] = biological target: T1, recombinant human B7H3-Fc protein; assay: ELISA, purified VHH
Summary of the method: as §2

monkey B7H3-His [8] = biological target: T5, monkey B7H3-His; assay: ELISA, purified VHH
Summary of the method: as §2

[9] = biological target: T7, B7H3 (CD276) on MC38-CD276+ cells; assay: flow cytometry on MC38-CD276+ cells, VHH at 50 ug/ml
[10] = biological target: T7, B7H3 (CD276) on MC38-CD276+ cells; assay: flow cytometry on MC38-CD276+ cells, VHH at 10 ug/ml
[11] = biological target: T7, B7H3 (CD276) on MC38-CD276+ cells; assay: flow cytometry on MC38-CD276+ cells, VHH at 2 ug/ml
[12] = biological target: T7, B7H3 (CD276) on MC38-CD276+ cells; assay: flow cytometry on MC38-CD276+ cells, VHH at 0.5 ug/ml
B7H3-hFc = biological target: T8, B7H3-hFc; assay: ELISA, B7H3-hFc coated, VH-His-FLAG detected with anti-FLAG-HRP
From the text: FIGS. 4A-4C: Binding properties of the B7H3 binders. (FIG. 4A) SDS-PAGE analysis of the purified A1 and B1 binders (VH-His-FLAG fusion) from E. coli. Two micrograms of purified B7H3-hFc, non-reduced (Non.) or reduced (Red.) by β-mercaptoethanol, were separated on an 8% SDS-PAGE gel. Protein bands were visualized by Coomassie blue R-250 staining. (FIG. 4B) Protein binding affinity measurement by ELISA. Five micrograms of B7H3-hFc were coated on the ELISA plate, and different concentrations of domain antibodies were incubated with the plate, and binding was detected by HRP conjugated anti-FLAG mouse monoclonal antibody M2. The binding curves were plotted using the software GraphPad Prism and the calculated EC50 values were determined by the software's algorithm of hyperbola one site binding. (FIG. 4C) Cell binding determination by flow cytometry. Ten microgram per mL domain antibody was co-incubated with one million cells. Antibody binding was visualized by APC conjugated anti-FLAG monoclonal antibody. The curves labelled “1” represent cells stained with secondary antibody only; the curves labelled “2” represent cells stained with A1 or B1 domain antibody.
The VH coding sequences of binders A1 and B1 were fused with His-FLAG tag at their C-termini and cloned into an E. coli expression vector. […] The purified yield was 2 mg/L (A1) and 10 mg/L fermentation (B1) respectively. […]

Binder	ELISA signal (IgG control)	ELISA signal [1]	ELISA signal (Non-relevant antigen [2])	ELISA signal (rat B7H3-His [3])	ELISA signal (mouse B7H3-His)	ELISA signal (human B7H3)	ELISA signal (monkey B7H3-His [4])	ELISA signal (PD-L1)	ELISA signal (Non-relevant antigen [5])	ELISA signal (rat B7H3-His [6])	ELISA signal (hB7H3-His)	ELISA signal [7]	ELISA signal (monkey B7H3-His [8])	Positive rates [9]	Positive rates [10]	Positive rates [11]	Positive rates [12]	EC50 (B7H3-hFc)
B1	0.136	2.75	0.0608	0.0951	0.0738	2.03	0.0706	0.0753	0.131	0.134	2.65	2.59	1.3	–	–	–	–	–
B2	–	–	–	–	–	–	2.22	–	–	–	–	–	0.0979	–	–	–	–	–
B3	0.0888	2.42	0.0654	0.738	0.0759	2.14	0.228	0.0454	–	–	–	2.34	–	–	–	–	–	–
B4	0.0685	2.5	0.0583	0.871	0.0819	2.13	0.267	0.0471	–	–	–	2.37	–	88.9%	44.9%	1.44%	0.19%	–
B5	0.0788	2.43	0.113	0.778	0.0782	2.21	0.237	0.0438	–	–	–	0.499	–	–	–	–	–	–
B6	–	–	–	–	–	–	–	–	–	–	–	–	–	–	–	–	–	403 nM

Source: patent publication US20220380471A1 (US Dept. of Health and Human Services, published 2022)
